Assay results: ChEMBL document CHEMBL1156468, “Crystal structures of Saccharomyces cerevisiae N-myristoyltransferase with bound myristoyl-CoA and inhibitors reveal the functional roles of the N-terminal region” (J Biol Chem, 2007)
Substitutions are numbered along the chain they refer to. Names may count otherwise. Each block holds one molecule with its values, some of them ahead of it.

Assays:
[1] = molecular target: T1, Glycylpeptide N-tetradecanoyltransferase (Saccharomyces cerevisiae S288c, UniProt P14743); assay: Inhibition of Saccharomyces cerevisiae NMT
T1 sequence (P14743 whole entry): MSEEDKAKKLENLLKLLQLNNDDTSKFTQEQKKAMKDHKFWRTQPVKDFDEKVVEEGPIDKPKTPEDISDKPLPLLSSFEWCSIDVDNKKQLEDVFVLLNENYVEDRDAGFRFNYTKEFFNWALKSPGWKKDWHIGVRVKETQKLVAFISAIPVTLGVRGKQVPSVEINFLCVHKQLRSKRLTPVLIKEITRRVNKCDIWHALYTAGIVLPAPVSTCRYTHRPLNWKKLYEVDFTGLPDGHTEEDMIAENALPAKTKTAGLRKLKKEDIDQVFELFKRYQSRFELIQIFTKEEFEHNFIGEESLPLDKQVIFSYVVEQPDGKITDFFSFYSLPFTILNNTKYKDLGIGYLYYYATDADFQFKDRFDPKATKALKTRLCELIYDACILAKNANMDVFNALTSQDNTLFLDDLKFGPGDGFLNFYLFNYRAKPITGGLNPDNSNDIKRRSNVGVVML

Saccharomyces cerevisiae [2] = assay: Activity of Saccharomyces cerevisiae NMT NMT delta1-20 mutant assessed as production of coenzyme A after 1 hr
Saccharomyces cerevisiae [3] = assay: Activity of Saccharomyces cerevisiae NMT NMT delta1-40 mutant assessed as production of coenzyme A after 1 hr
Saccharomyces cerevisiae [4] = assay: Ratio of kcat to Km for Saccharomyces cerevisiae NMT delta1-20 mutant
Saccharomyces cerevisiae [5] = assay: Activity of Saccharomyces cerevisiae NMT D22K/D23K mutant assessed as production of coenzyme A after 1 hr
Saccharomyces cerevisiae [6] = assay: Ratio of kcat to Km for Saccharomyces cerevisiae NMT delta1-40 mutant
Saccharomyces cerevisiae [7] = assay: Activity of Saccharomyces cerevisiae NMT NMT delta1-30 mutant assessed as production of coenzyme A after 1 hr
Saccharomyces cerevisiae [8] = assay: Ratio of kcat to Km for Saccharomyces cerevisiae NMT D22K/D23K mutant
Saccharomyces cerevisiae [9] = assay: Ratio of kcat to Km for Saccharomyces cerevisiae NMT delta1-30 mutant
[10] = substrate: CC(C)C[C@H](NC(=O)CN)C(=O)N[C@@H](Cc1ccccc1)C(=O)N[C@@H](C)C(=O)N[C@@H](CO)C(=O)N[C@@H](CCCCN)C(=O)N[C@@H](CC(C)C)C(=O)N[C@@H](Cc1ccccc1)C(=O)O; assay: Ratio of kcat to Km for Saccharomyces cerevisiae wild type NMT
[11] = substrate: CC(C)C[C@H](NC(=O)CN)C(=O)N[C@@H](Cc1ccccc1)C(=O)N[C@@H](C)C(=O)N[C@@H](CO)C(=O)N[C@@H](CCCCN)C(=O)N[C@@H](CC(C)C)C(=O)N[C@@H](Cc1ccccc1)C(=O)O; assay: Activity of Saccharomyces cerevisiae wild type NMT assessed as production of coenzyme A after 1 hr
[12] = substrate: CC(C)C[C@H](NC(=O)CN)C(=O)N[C@@H](Cc1ccccc1)C(=O)N[C@@H](C)C(=O)N[C@@H](CO)C(=O)N[C@@H](CCCCN)C(=O)N[C@@H](CC(C)C)C(=O)N[C@@H](Cc1ccccc1)C(=O)O; assay: Activity of Saccharomyces cerevisiae NMT D108A mutant assessed as production of coenzyme A after 1 hr
[13] = substrate: CC(C)C[C@H](NC(=O)CN)C(=O)N[C@@H](Cc1ccccc1)C(=O)N[C@@H](C)C(=O)N[C@@H](CO)C(=O)N[C@@H](CCCCN)C(=O)N[C@@H](CC(C)C)C(=O)N[C@@H](Cc1ccccc1)C(=O)O; assay: Ratio of kcat to Km for Saccharomyces cerevisiae NMT D108A mutant
[14] = substrate: CC(C)C[C@H](NC(=O)CN)C(=O)N[C@@H](Cc1ccccc1)C(=O)N[C@@H](C)C(=O)N[C@@H](CO)C(=O)N[C@@H](CCCCN)C(=O)N[C@@H](CC(C)C)C(=O)N[C@@H](Cc1ccccc1)C(=O)O; assay: Ratio of kcat to Km for Saccharomyces cerevisiae NMT D22K mutant
[15] = substrate: CC(C)C[C@H](NC(=O)CN)C(=O)N[C@@H](Cc1ccccc1)C(=O)N[C@@H](C)C(=O)N[C@@H](CO)C(=O)N[C@@H](CCCCN)C(=O)N[C@@H](CC(C)C)C(=O)N[C@@H](Cc1ccccc1)C(=O)O; assay: Activity of Saccharomyces cerevisiae NMT D22K mutant assessed as production of coenzyme A after 1 hr
[16] = substrate: CC(C)C[C@H](NC(=O)CN)C(=O)N[C@@H](Cc1ccccc1)C(=O)N[C@@H](C)C(=O)N[C@@H](CO)C(=O)N[C@@H](CCCCN)C(=O)N[C@@H](CC(C)C)C(=O)N[C@@H](Cc1ccccc1)C(=O)O; assay: Activity of Saccharomyces cerevisiae NMT D23K mutant assessed as production of coenzyme A after 1 hr
[17] = substrate: CC(C)C[C@H](NC(=O)CN)C(=O)N[C@@H](Cc1ccccc1)C(=O)N[C@@H](C)C(=O)N[C@@H](CO)C(=O)N[C@@H](CCCCN)C(=O)N[C@@H](CC(C)C)C(=O)N[C@@H](Cc1ccccc1)C(=O)O; assay: Ratio of kcat to Km for Saccharomyces cerevisiae NMT D23K mutant
[18] = substrate: CC(C)C[C@H](NC(=O)CN)C(=O)N[C@@H](Cc1ccccc1)C(=O)N[C@@H](C)C(=O)N[C@@H](CO)C(=O)N[C@@H](CCCCN)C(=O)N[C@@H](CC(C)C)C(=O)N[C@@H](Cc1ccccc1)C(=O)O; assay: Activity of Saccharomyces cerevisiae NMT D23A mutant assessed as production of coenzyme A after 1 hr
[19] = substrate: CC(C)C[C@H](NC(=O)CN)C(=O)N[C@@H](Cc1ccccc1)C(=O)N[C@@H](C)C(=O)N[C@@H](CO)C(=O)N[C@@H](CCCCN)C(=O)N[C@@H](CC(C)C)C(=O)N[C@@H](Cc1ccccc1)C(=O)O; assay: Ratio of kcat to Km for Saccharomyces cerevisiae NMT D23A mutant
[20] = substrate: CC(C)C[C@H](NC(=O)CN)C(=O)N[C@@H](Cc1ccccc1)C(=O)N[C@@H](C)C(=O)N[C@@H](CO)C(=O)N[C@@H](CCCCN)C(=O)N[C@@H](CC(C)C)C(=O)N[C@@H](Cc1ccccc1)C(=O)O; assay: Activity of Saccharomyces cerevisiae NMT D106K mutant assessed as production of coenzyme A after 1 hr
[21] = substrate: CC(C)C[C@H](NC(=O)CN)C(=O)N[C@@H](Cc1ccccc1)C(=O)N[C@@H](C)C(=O)N[C@@H](CO)C(=O)N[C@@H](CCCCN)C(=O)N[C@@H](CC(C)C)C(=O)N[C@@H](Cc1ccccc1)C(=O)O; assay: Ratio of kcat to Km for Saccharomyces cerevisiae NMT D106K mutant
[22] = substrate: CC(C)C[C@H](NC(=O)CN)C(=O)N[C@@H](Cc1ccccc1)C(=O)N[C@@H](C)C(=O)N[C@@H](CO)C(=O)N[C@@H](CCCCN)C(=O)N[C@@H](CC(C)C)C(=O)N[C@@H](Cc1ccccc1)C(=O)O; assay: Ratio of kcat to Km for Saccharomyces cerevisiae NMT D106A/D108A mutant
[23] = substrate: CC(C)C[C@H](NC(=O)CN)C(=O)N[C@@H](Cc1ccccc1)C(=O)N[C@@H](C)C(=O)N[C@@H](CO)C(=O)N[C@@H](CCCCN)C(=O)N[C@@H](CC(C)C)C(=O)N[C@@H](Cc1ccccc1)C(=O)O; assay: Activity of Saccharomyces cerevisiae NMT D106A/D108A mutant assessed as production of coenzyme A after 1 hr
[24] = substrate: CC(C)C[C@H](NC(=O)CN)C(=O)N[C@@H](Cc1ccccc1)C(=O)N[C@@H](C)C(=O)N[C@@H](CO)C(=O)N[C@@H](CCCCN)C(=O)N[C@@H](CC(C)C)C(=O)N[C@@H](Cc1ccccc1)C(=O)O; assay: Activity of Saccharomyces cerevisiae NMT T24D mutant assessed as production of coenzyme A after 1 hr
[25] = substrate: CC(C)C[C@H](NC(=O)CN)C(=O)N[C@@H](Cc1ccccc1)C(=O)N[C@@H](C)C(=O)N[C@@H](CO)C(=O)N[C@@H](CCCCN)C(=O)N[C@@H](CC(C)C)C(=O)N[C@@H](Cc1ccccc1)C(=O)O; assay: Ratio of kcat to Km for Saccharomyces cerevisiae NMT T24D mutant
[26] = substrate: CC(C)C[C@H](NC(=O)CN)C(=O)N[C@@H](Cc1ccccc1)C(=O)N[C@@H](C)C(=O)N[C@@H](CO)C(=O)N[C@@H](CCCCN)C(=O)N[C@@H](CC(C)C)C(=O)N[C@@H](Cc1ccccc1)C(=O)O; assay: Ratio of kcat to Km for Saccharomyces cerevisiae NMT D22A mutant
[27] = substrate: CC(C)C[C@H](NC(=O)CN)C(=O)N[C@@H](Cc1ccccc1)C(=O)N[C@@H](C)C(=O)N[C@@H](CO)C(=O)N[C@@H](CCCCN)C(=O)N[C@@H](CC(C)C)C(=O)N[C@@H](Cc1ccccc1)C(=O)O; assay: Activity of Saccharomyces cerevisiae NMT D22A mutant assessed as production of coenzyme A after 1 hr
[28] = substrate: CC(C)C[C@H](NC(=O)CN)C(=O)N[C@@H](Cc1ccccc1)C(=O)N[C@@H](C)C(=O)N[C@@H](CO)C(=O)N[C@@H](CCCCN)C(=O)N[C@@H](CC(C)C)C(=O)N[C@@H](Cc1ccccc1)C(=O)O; assay: Ratio of kcat to Km for Saccharomyces cerevisiae NMT D22A/D23A mutant
[29] = substrate: CC(C)C[C@H](NC(=O)CN)C(=O)N[C@@H](Cc1ccccc1)C(=O)N[C@@H](C)C(=O)N[C@@H](CO)C(=O)N[C@@H](CCCCN)C(=O)N[C@@H](CC(C)C)C(=O)N[C@@H](Cc1ccccc1)C(=O)O; assay: Activity of Saccharomyces cerevisiae NMT D22A/D23A mutant assessed as production of coenzyme A after 1 hr
[30] = substrate: CC(C)C[C@H](NC(=O)CN)C(=O)N[C@@H](Cc1ccccc1)C(=O)N[C@@H](C)C(=O)N[C@@H](CO)C(=O)N[C@@H](CCCCN)C(=O)N[C@@H](CC(C)C)C(=O)N[C@@H](Cc1ccccc1)C(=O)O; assay: Ratio of kcat to Km for Saccharomyces cerevisiae NMT D108K mutant
[31] = substrate: CC(C)C[C@H](NC(=O)CN)C(=O)N[C@@H](Cc1ccccc1)C(=O)N[C@@H](C)C(=O)N[C@@H](CO)C(=O)N[C@@H](CCCCN)C(=O)N[C@@H](CC(C)C)C(=O)N[C@@H](Cc1ccccc1)C(=O)O; assay: Activity of Saccharomyces cerevisiae NMT D108K mutant assessed as production of coenzyme A after 1 hr

IC50 [1]: 0.05 µM
Molecule: CCCCCCCCCCCCCC(=O)CSCCNC(=O)CCNC(=O)C(O)C(C)(C)COP(=O)(O)OP(=O)(O)OC[C@H]1O[C@@H](n2cnc3c(N)ncnc32)[C@H](O)[C@@H]1OP(=O)(O)O (some centres not stated)

Km (Saccharomyces cerevisiae [2]): 27.7 µM
kcat (Saccharomyces cerevisiae [2]): 3.58 s⁻¹
Km (Saccharomyces cerevisiae [3]): 162 µM
kcat (Saccharomyces cerevisiae [3]): 4.03 s⁻¹
kcat/Km (Saccharomyces cerevisiae [4]): 1.29 ×10⁵ /M/s
Km (Saccharomyces cerevisiae [5]): 150 µM
kcat (Saccharomyces cerevisiae [5]): 4.73 s⁻¹
kcat/Km (Saccharomyces cerevisiae [6]): 2.48 ×10⁴ /M/s
Km (Saccharomyces cerevisiae [7]): 159 µM
kcat (Saccharomyces cerevisiae [7]): 3.85 s⁻¹
kcat/Km (Saccharomyces cerevisiae [8]): 3.16 ×10⁴ /M/s
kcat/Km (Saccharomyces cerevisiae [9]): 2.43 ×10⁴ /M/s
Molecule: H-GLFASKLF-OH

IC50 [1]: 0.024 µM
Molecule: Cc1nccn1CCCCc1ccc(CC(=O)N[C@@H](CO)C(=O)N[C@@H](CCCCN)C(=O)NCCC2CCCCC2)cc1 [SC-58272]

B1: Glycylpeptide N-tetradecanoyltransferase (Saccharomyces cerevisiae S288c), P14743 (protein)
chain: T1 sequence (P14743 whole entry)
kcat/Km [10]: 2.24 ×10⁵ /M/s
Km [11]: 13.7 µM
kcat [11]: 3.06 s⁻¹

B2: Glycylpeptide N-tetradecanoyltransferase (Saccharomyces cerevisiae S288c), P14743 D108A (protein)
chain: T1 sequence (P14743 whole entry) with D108A
Km [12]: 7.89 µM
kcat [12]: 1.94 s⁻¹
kcat/Km [13]: 2.45 ×10⁵ /M/s

B3: Glycylpeptide N-tetradecanoyltransferase (Saccharomyces cerevisiae S288c), P14743 D22K (protein)
chain: T1 sequence (P14743 whole entry) with D22K
kcat/Km [14]: 1.05 ×10⁵ /M/s
Km [15]: 23.8 µM
kcat [15]: 2.5 s⁻¹

B4: Glycylpeptide N-tetradecanoyltransferase (Saccharomyces cerevisiae S288c), P14743 D23K (protein)
chain: T1 sequence (P14743 whole entry) with D23K
Km [16]: 50.2 µM
kcat [16]: 3.64 s⁻¹
kcat/Km [17]: 7.26 ×10⁴ /M/s

B5: Glycylpeptide N-tetradecanoyltransferase (Saccharomyces cerevisiae S288c), P14743 D23A (protein)
chain: T1 sequence (P14743 whole entry) with D23A
Km [18]: 21.4 µM
kcat [18]: 2.71 s⁻¹
kcat/Km [19]: 1.27 ×10⁵ /M/s

B6: Glycylpeptide N-tetradecanoyltransferase (Saccharomyces cerevisiae S288c), P14743 D106K (protein)
chain: T1 sequence (P14743 whole entry) with D106K
Km [20]: 30.6 µM
kcat [20]: 2.65 s⁻¹
kcat/Km [21]: 8.65 ×10⁴ /M/s

B7: Glycylpeptide N-tetradecanoyltransferase (Saccharomyces cerevisiae S288c), P14743 D106A,D108A (protein)
chain: T1 sequence (P14743 whole entry) with D106A, D108A
kcat/Km [22]: 6.62 ×10⁴ /M/s
Km [23]: 38.5 µM
kcat [23]: 2.55 s⁻¹

B8: Glycylpeptide N-tetradecanoyltransferase (Saccharomyces cerevisiae S288c), P14743 T24D (protein)
chain: T1 sequence (P14743 whole entry) with T24D
Km [24]: 41.6 µM
kcat [24]: 2.77 s⁻¹
kcat/Km [25]: 6.67 ×10⁴ /M/s

B9: Glycylpeptide N-tetradecanoyltransferase (Saccharomyces cerevisiae S288c), P14743 D22A (protein)
chain: T1 sequence (P14743 whole entry) with D22A
kcat/Km [26]: 9.03 ×10⁴ /M/s
Km [27]: 19 µM
kcat [27]: 1.72 s⁻¹

B10: Glycylpeptide N-tetradecanoyltransferase (Saccharomyces cerevisiae S288c), P14743 D22A,D23A (protein)
chain: T1 sequence (P14743 whole entry) with D22A, D23A
kcat/Km [28]: 4.15 ×10⁴ /M/s
Km [29]: 92.4 µM
kcat [29]: 3.83 s⁻¹

B11: Glycylpeptide N-tetradecanoyltransferase (Saccharomyces cerevisiae S288c), P14743 D108K (protein)
chain: T1 sequence (P14743 whole entry) with D108K
kcat/Km [30]: 1.4 ×10⁵ /M/s
Km [31]: 13.9 µM
kcat [31]: 1.94 s⁻¹
